Source: patent publication US20210253725A1 (BIONTECH, published 2021)

Tests used:
[1] = target: T1, CD137 expressed on the cell surface of HT1080_4-1BB cells (human, UniProt Q07011 24-255); assay: cell-based or functional assay
[2] = target: T1, CD137 expressed on the cell surface of …; assay: HT1080_4-1BB cells, imaging; note: test concentration or dose not given here
[3] = target: T2, CD137 protein (His-tagged, Sino Biological Inc. 10041-H08H) (human, UniProt Q07011 24-186); assay: ELISA, coated His-tagged CD137; note: test concentration or dose not given here
T2 construct: bought protein coated on ELISA plates; also called 4-1BB; TNFRSF9; not shown: His tag

[4] = target: human 4-1BB (CD137) (human, UniProt Q07011 24-255); assay: cell-based or functional assay
[5] = target: CD134 expressed on the cell surface of HT1080_OX40 cells (human) (UniProt P43489); assay: cell-based or functional assay
[6] = target: CD134 expressed on the cell surface of HT1080_OX40 cells (human) (UniProt P43489); assay: HT1080_OX40 cells, imaging
Throughout, for Functional assay Cross-linked by F(ab′)2 fragment IL-8: test concentration or dose not given here.
Throughout, for Functional assay IL-8: test concentration or dose not given here.

T1 sequence (Q07011 24-255): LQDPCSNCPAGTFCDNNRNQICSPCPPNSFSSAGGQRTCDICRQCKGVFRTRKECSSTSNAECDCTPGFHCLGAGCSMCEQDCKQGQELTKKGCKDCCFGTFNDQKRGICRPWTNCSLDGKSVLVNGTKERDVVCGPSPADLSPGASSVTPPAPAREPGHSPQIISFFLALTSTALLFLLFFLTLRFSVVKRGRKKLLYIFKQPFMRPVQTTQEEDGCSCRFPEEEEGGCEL
human 4-1BB (CD137), sequence (Q07011 24-255): as above
CD134 expressed on the cell surface of HT1080_OX40 cells (human), sequence (P43489 29-277): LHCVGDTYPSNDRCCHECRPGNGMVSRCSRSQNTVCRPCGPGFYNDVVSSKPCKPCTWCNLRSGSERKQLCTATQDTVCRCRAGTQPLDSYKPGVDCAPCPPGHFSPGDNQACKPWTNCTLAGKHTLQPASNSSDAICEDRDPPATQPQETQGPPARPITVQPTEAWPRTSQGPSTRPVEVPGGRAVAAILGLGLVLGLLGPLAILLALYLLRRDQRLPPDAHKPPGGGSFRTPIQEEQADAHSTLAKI

Functional assay Cross-linked by F(ab′)2 fragment IL-8 [1]	Functional assay IL-8 [1]	Cellular binding assay [RFU] [2]	ELISA [abs. corr.] [3]	EC 50 [ng/mL] of agonistic function (IL-8 release from CD137-overexpressing HT1080 cells, antibody cross-linked by F(ab')2 goat anti-human IgG) [4]	EC 50 (IL-8 release, cross-linked) [5]	Functional assay Cross-linked by F(ab′)2 fragment IL-8 [5]	Functional assay IL-8 [5]	Cellular binding assay [RFU] [6]	Binder
0.789 abs. corr.	-0.164 abs. corr.	13 RFU	1.73 abs. corr.	–	–	–	–	–	P018.S.13.A.G03 (antibody, V domains shown, V regions on human Ig constant parts; also called AB137_7) VH: QSLEESGGRLVTPGTPLTLTCTASGFSLSSYDVSWVRQAPGKGLEYIGFIGSDGSAHYATWVKGRFTISKTSTTVDLKITSPTTEDTATYFCARDWNDYWAHDLWGPGTLVTVSS VL: AQVLTQTTSPVSAAVGGTVTINCQASQIVTSKSALSWYQQKPGQPPRLLIYKASTLASGVPSRFSGSGSGTQFTLTISDLESDDAATYYCAGGYYNSGDLNPFGGGTEVVVK
–	–	–	–	–	0.966 µg/mL	2.39 abs. corr.	0.032 abs. corr.	40 RFU	P018.S.05.A.G03 (antibody, V domains shown) VH: QEQLVESGGGLVQPEGSLTVTCTASGFSFSNSYWMCWVRQAPGKGLEWIACIYLGSAGTTHHATWAKGRFTISKTTSTTVTLQMTSLTAADTATYFCARAGHDYWGAYHTLWGPGTLVTVSS VL: DVVMTQTPASVSEPVGGSVTIKCQASQNIDNTLAWYQQKAGQPPKLLIYHASTLASGVPSRFRGSGSGTDFTLTISDLESADAATYYCQCPYYGSTYVYSFGGGTEVVVK
1.55 abs. corr.	0.368 abs. corr.	46 RFU	3.42 abs. corr.	–	–	–	–	–	P018.S.08.A.A04 (antibody, V domains shown, V regions on human Ig constant parts; also called AB137_1) VH: QSVEESGGRLVTPGTPLTLTCTVSGFSLSSYAVSWVRQAPGKGLEWIGVIWNNGATHYATWAKGRFTISKASTTVDLKVTSPTTEDTATYFCARSANDAWSTYSDLWGQGTLVTVSS VL: DIVMTQTPASVEAAVGGTVTIKCQASQTITNYLSWYQQKPGQPPKLLIYKASTLTSGVSSRFKGSGSGTEFTLTISDLESDDAATYYCQNYYYGSSSGYGFVFGGGTEVVVK
1.4 abs. corr.	0.113 abs. corr.	8 RFU	2.55 abs. corr.	–	–	–	–	–	P018.S.13.A.C02 (antibody, V domains shown, V regions on human Ig constant parts; also called AB137_6) VH: QSVEESGGRLVTPGTPLTLTCTVSGFSLSSYAMSWVRQAPGKGLEWIGIISTSGITYYASWAKGRFTISKTSTMVDLKITSPTTEDTATYFCARLNGFDDYVRYFDFWGLGTLVTVSS VL: AIELTQTPSSVSAAVGGTVTINCQASESIASNLAWYQQKPGQPPKLLIYAASYLASGVPSRFKGSGSGTEYTLTISGVQSADAATYYCQSAFYVSSSDNAFGGGTEVVVK
1.14 abs. corr.	0.222 abs. corr.	19 RFU	2.07 abs. corr.	–	–	–	–	–	P018.S.14.A.G03 (antibody, V domains shown, V regions on human Ig constant parts; also called AB137_11) VH: QSLEESGGRLVTPGTPLTLTCTVSGIDLSSYHMCWVRQAPGKGLEYIGYIAYGGNTYYANWAKGRFTISKTSTTVDLRITSPTTEDTATYFCARGYSEDSYWGLWGPGTLVTVSS VL: AYDMTQTPASVEAAVGGTVTIKCQASQNIENYLAWYQQKPGQPPKLLIYDTSKLTSGVPSRFSGSGSGTDFTLTISGVQSDDAATYYCQQDYGIIFVDNIFGGGTEVVVK

The next lines start with the binder.

Binder	Functional assay Cross-linked by F(ab′)2 fragment IL-8 [1]	Functional assay IL-8 [1]	Cellular binding assay [RFU] [2]	ELISA [abs. corr.] [3]	EC 50 [ng/mL] of agonistic function (IL-8 release from CD137-overexpressing HT1080 cells, antibody cross-linked by F(ab')2 goat anti-human IgG) [4]	EC 50 (IL-8 release, cross-linked) [5]	Functional assay Cross-linked by F(ab′)2 fragment IL-8 [5]	Functional assay IL-8 [5]	Cellular binding assay [RFU] [6]
P018.S.14.A.H01 (antibody, V domains shown, V regions on human Ig constant parts; also called AB137_12) VH: QSVEESGGRLVTPGTPLTLTCTVSGFSLSDYYMTWVRQAPGKGLEYIGIMSGSGSTYYASWAKGRFTISKTSSTTLELKITSPTTEDTAIYFCARDGDYAGWGYATGAFDPWGPGTLVTVSS VL: AAVLTQTPSPVSAAVGGTVTISCQASQSVVGNSLLSWFQKKPGQPPKLLIYSASSLASGVPSRFKGSGSGTQFTLTISDLESDDAATYYCTGRYNSDTDTFVFGGGTEVVVK	2.19 abs. corr.	2.02 abs. corr.	6 RFU	2.97 abs. corr.	–	–	–	–	–
P018.S.08.A.E03 (antibody, V domains shown, V regions on human Ig constant parts; also called AB137_2) VH: QSVEESGGRLVTPGTPLTLTCTVSGFSLTYYAVTWVRQPPGKGLEWIGVIYDNGATAFATWAKGRFTMSKNSTTVALKVTSPTTEDTATYFCARSANNAWSTYSNLWGQGTLVTVSS VL: DIVMTQTPSSVSAAVGGTVTINCQASEDISSYLSWYQQKLGQPPKLLIYKASTLESGVPSRFKGSGSGTEYTLTISDLESDDAATYYCQSYYSGSISGYGFVFGGGTGVVVK	2.02 abs. corr.	-0.304 abs. corr.	9 RFU	3.05 abs. corr.	–	–	–	–	–
P018.S.08.A.F03 (antibody, V domains shown, V regions on human Ig constant parts; also called AB137_3) VH: QSVEESGGRLVTPGTPLTLTCTASGFTISSYHMIWVRQAPGEGLEWIGDIYGGTATTDYASWAKGRFTISKTSTTVDLKMTSLTTEDTATYFCARARYSGGSYANYVFNLWGQGTLVTVSS VL: DIVMTQTPASVEAAVGGTVTIKCQASQSISSYLAWYQQKPGQPPKLLIYRTSTLESGVPSRFKGSGSGTEFTLTISDLESADAATYYCQGYDWSSSNRYDNTFGGGTEVVVK	1.36 abs. corr.	-0.346 abs. corr.	7 RFU	2.33 abs. corr.	–	–	–	–	–
P018.S.14.A.D06 (antibody, V domains shown, V regions on human Ig constant parts; also called AB137_10) VH: QSVEESGGRLVTPGTPLTLTCTVSGFSLSTYAMIWVRQAPGKGLEWIGVVYDNGYISHATWVKGRFTISKTSTTVGLEITSPTTEDTATYFCARSADGSWSTYFNLWGQGTLVTVSS VL: DIVMTQTPASVEAAVGGTVTIKCQASESISNYLAWYQQKPGQPPKLLIYKASTLASGVSSRFKGSGSGTEFTLTISDLESADAATYYCQTNYCCSSSDNGFAFGGGTEVVVK	1.52 abs. corr.	-0.011 abs. corr.	1 RFU	2.9 abs. corr.	–	–	–	–	–
P018.S.14.A.D06 (antibody, V domains shown) VH: QSVEESGGRLVTPGTPLTLTCTVSGFSLSTYAMIWVRQAPGKGLEWIGVVYDNGYISHATWVKGRFTISKTSTTVGLEITSPTTEDTATYFCARSADGSWSTYFNLWGQGTLVTVSS VL: DIVMTQTPASVEAAVGGTVTIKCQASESISNYLAWYQQKPGQPPKLLIYKASTLASGVSSRFKGSGSGTEFTLTISDLESADAATYYCQTNYCCSSSDNGFAFGGGTEVVVK	–	–	–	–	10200 ng/mL	–	–	–	–
P018.S.13.A.A05 (antibody, V domains shown, V regions on human Ig constant parts; also called AB137_4) VH: QSLEESGGRLVTPGTPLTLTCTASGFSLSRYDMSWVRQAPGKGLEYIGVISSSGGTNYANWAKGRFTISKTSTTVDLKITSPTTEDTATYFCAREGDYWDFNLWGPGTLVTVSS VL: AQVLTQTPSSVSAAVGGTVTINCQASQSISNLLAWYQQKPGQPPKLLIYGASTLASGVPSRFSGSGSGTEFTLTISDLESDDAATYYCAGGFPGLDTVAAFGGGTEAVVT	2.57 abs. corr.	0.559 abs. corr.	0 RFU	0.687 abs. corr.	–	–	–	–	–
P018.S.13.A.G04 (antibody, V domains shown, V regions on human Ig constant parts; also called AB137_8) VH: QSLEESGGRLVTPGTPLTLTCTASGFSLSSYDMSWVRQAPGKGLEYIGYISSSGNTYYASWAKSRFTISKTSTTVDLKITSPTTEDTATYFCAREGDYWDFNLWGPGTLVTVSS VL: AQVLTQTPSSVSAAVGGTVTINCQASQSISNLLAWYQQKPGQRPRLLIYRASTLASGVPSRFKGSGSGTEFTLTISDLESEDAATYYCAGGFPGLDTGATFGGGTEAVVT	1.8 abs. corr.	-0.179 abs. corr.	1 RFU	0.577 abs. corr.	–	–	–	–	–
P018.S.13.A.G04 (antibody, V domains shown) VH: QSLEESGGRLVTPGTPLTLTCTASGFSLSSYDMSWVRQAPGKGLEYIGYISSSGNTYYASWAKSRFTISKTSTTVDLKITSPTTEDTATYFCAREGDYWDFNLWGPGTLVTVSS VL: AQVLTQTPSSVSAAVGGTVTINCQASQSISNLLAWYQQKPGQRPRLLIYRASTLASGVPSRFKGSGSGTEFTLTISDLESEDAATYYCAGGFPGLDTGATFGGGTEAVVT	–	–	–	–	255000 ng/mL	–	–	–	–
P018.S.13.A.A06 (antibody, V domains shown, V regions on human Ig constant parts; also called AB137_5) VH: QSVEESGGRLVTPGTPLTLTCTASGFTISDFHVTWVRQAPGKGLEWIGTIITSASTTAYATWARGRFTISKSSTTVNLKIVSPTTEDTATYFCARSTYTDTSGYYFDFWGQGTLVTVSS VL: AQVLTQTASPVSAAVGGTVIINCQSSQSIYNGNRLSWYQQKPGQPPKLLIYSASTLASGVSSRFKGSGSGTQFTLAISDVQSDDAATYYCLGSYDCDSADCFAFGGGTEVVVE	1.71 abs. corr.	-0.153 abs. corr.	38 RFU	3.39 abs. corr.	–	–	–	–	–
P018.S.13.A.A06 (antibody, V domains shown) VH: QSVEESGGRLVTPGTPLTLTCTASGFTISDFHVTWVRQAPGKGLEWIGTIITSASTTAYATWARGRFTISKSSTTVNLKIVSPTTEDTATYFCARSTYTDTSGYYFDFWGQGTLVTVSS VL: AQVLTQTASPVSAAVGGTVIINCQSSQSIYNGNRLSWYQQKPGQPPKLLIYSASTLASGVSSRFKGSGSGTQFTLAISDVQSDDAATYYCLGSYDCDSADCFAFGGGTEVVVE	–	–	–	–	7790 ng/mL	–	–	–	–
P018.S.14.A.A04 (antibody, V domains shown, V regions on human Ig constant parts; also called AB137_9) VH: QSLEESGGRLVTPGTPLTLTCTVSGFSLNDYWMSWVRQAPGKGLEWIGYIDVGGSLYYASWAKGRFTISRTSTTVDLKMTSLTTEDTATYFCARGGLTYGFDLWGPGTLVTVSS VL: DIVMTQTPASVSEPVGGTVTINCQASEDISSYLAWYQQKPGQRPKRLIYGASDLASGVPSRFSASGSGTEYALTISDLESADAATYYCHYYATISGLGVAFGGGTEVVVK	0.972 abs. corr.	0.785 abs. corr.	81 RFU	3.44 abs. corr.	–	–	–	–	–
